Experimental data from PMC4027176, “Modulating TRAP-mediated transcription termination by AT during transcription of the leader region of the Bacillus subtilis trp operon” (Nucleic Acids Research, 2014).
Each block holds one molecule with its values, some of them ahead of it.

B4: His-tagged N20C (Asn20 replaced with Cys) TRAP (natural protein, B. subtilis, UniProt P19466 1-75, looked up)
chain: MNQKHSSDFVVIKAVEDGVCVIGLTRGTDTKFHHSEKLDKGEVIIAQFTEHTSAIKVRGEALIQTAYGEMKSEKK
notes: TRAP of Bacillus subtilis (mtrB), 75 amino acid subunit, with Asn20 replaced by Cys; six histidine residues at the carboxy terminus of each subunit; Cross-linking was done in the presence of 1 mM tryptophan; also called N20C TRAP; N20C TRAP 11mer; source: purified using Ni-agarose; not shown: His6, C-terminal, kept; copies: 11

Assays:
[1] = target: T1, TRAP (trp RNA binding Attenuation Protein), WT (Bacillus subtilis) (UniProt P19466); test: filter binding; details: Filter binding: 16 mM Tris pH 8.0, 250 mM KCl, 1 mM tryptophan, 10 ug yeast RNA, 37 C, 20 min. Pull-down: 20 mM Tris-HCl pH 8.0, 6 mM MgCl2, 2 mM DTT, 100 mM …
T1 sequence: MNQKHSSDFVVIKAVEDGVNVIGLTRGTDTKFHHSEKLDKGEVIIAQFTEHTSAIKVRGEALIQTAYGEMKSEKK

[2] = target: T2, TRAP-AT = 1:1 complex, (N20C)1(WT)10 TRAP 11mer crosslinked with BMOE to one D7C AT trimer N20C;D7C (Bacillus subtilis) (UniProt P19466+P19466+O31466); test: filter binding; details: Filter binding: 16 mM Tris pH 8.0, 250 mM KCl, 1 mM tryptophan, 10 ug yeast RNA, 37 C, 20 min. Pull-down: 20 mM Tris-HCl pH 8.0, 6 mM MgCl2, 2 mM DTT, 100 mM …
T2 sequence 1: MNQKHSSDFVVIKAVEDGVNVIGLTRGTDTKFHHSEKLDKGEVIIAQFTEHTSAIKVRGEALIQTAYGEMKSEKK
T2 sequence 2: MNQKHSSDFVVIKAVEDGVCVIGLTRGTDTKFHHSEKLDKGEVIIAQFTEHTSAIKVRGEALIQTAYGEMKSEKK
T2 sequence 3: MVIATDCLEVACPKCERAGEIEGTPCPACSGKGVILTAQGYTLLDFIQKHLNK

[3] = target: T1, TRAP (trp RNA binding Attenuation Protein), WT (Bacillus subtilis); test: pull-down of blocked TEC, immunoblot; details: Filter binding: 16 mM Tris pH 8.0, 250 mM KCl, 1 mM tryptophan, 10 ug yeast RNA, 37 C, 20 min. Pull-down: 20 mM Tris-HCl pH 8.0, 6 mM MgCl2, 2 mM DTT, 100 mM …
[4] = target: T3, trp RNA binding Attenuation Protein (TRAP), wild type, 11mer (B. subtilis) (UniProt P19466)
T3 sequence: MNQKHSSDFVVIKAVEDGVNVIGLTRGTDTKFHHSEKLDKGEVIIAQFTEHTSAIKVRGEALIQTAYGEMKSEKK

[5] = target: the molecule itself; test: cross-linking; BMOE (0.04 mM, 8 Å sulfhydryl cross-linker); N20C TRAP 0.02 mM and/or D7C AT 0.08 mM; 1 mM tryptophan; PBS pH 7.2, 0.5 mM EDTA; 37°C 1 h; 15% SDS gel, Coomassie
[6] = target: B4; test: pull-down; limiting His-tagged N20C TRAP mixed with 50-fold excess WT TRAP, denatured in 5 M guanidine-HCl 1 h at room temperature, renatured by dialysis in 50 mM phosphate pH 8.0; hetero-11mers held on Ni agarose; details: both partners purified

Molecule: GAGUUGAGUUGAGUUGAGUUGAGUUGAGUUGAGUUGAGUUGAGUUGAGUUGAGUU [(GAGUU)11 RNA]
- Kd [1]: 0.55 nM
- Kd [2]: 3.7 nM

Molecule: Δ10-11Eco116 nascent trp leader RNA (8 repeats exposed)
- binding signal [3]: 100 % TRAP bound

Molecule: Eco116 nascent trp leader RNA (~11 repeats exposed)
- binding signal [3]: 100 % TRAP bound

Molecule: Δ9-11Eco116 nascent trp leader RNA (7 repeats exposed)
- binding signal [3]: 100 % TRAP bound

- in vitro transcription attenuation, Eco116 template; percent of transcripts terminated when AT was added after TRAP had bound the nascent transcript (post) [4]: 80%
B1: Anti-TRAP (AT), wild type, trimer (natural protein)
chain: MVIATDDLEVACPKCERAGEIEGTPCPACSGKGVILTAQGYTLLDFIQKHLNK

B2: AT containing a Cys substitution at residue 7 (D7C AT) (natural protein, B. subtilis, UniProt O31466 1-53, looked up)
chain: MVIATDCLEVACPKCERAGEIEGTPCPACSGKGVILTAQGYTLLDFIQKHLNK
notes: Anti-TRAP (AT) of Bacillus subtilis with Asp7 replaced by Cys; source: purified as described by Chen and Gollnick (19)
- binding result [5]: binds

- binding result [6]: binds
B3: trp RNA binding Attenuation Protein (TRAP), wild type, 11mer (natural protein, B. subtilis, UniProt P19466 1-75, looked up)
chain: MNQKHSSDFVVIKAVEDGVNVIGLTRGTDTKFHHSEKLDKGEVIIAQFTEHTSAIKVRGEALIQTAYGEMKSEKK
notes: 11 identical subunits of 75 amino acids in a ring; also called WT TRAP; TRAP 11mer; copies: 11

Molecule: B4
- binding result [5]: binds
